The record followed here is US20230357348A1 (AstraZeneca / MedImmune, published 2023).

Starred links: 1 amine or outer side, 2 acyl side, 3 side chain; linkers in the order of their positions; H or OH if unused. Non-standard residues stand in square brackets, D forms with d. Groups on a side chain read outwards from the residue. No end group written: not given here. *: point of attachment. C20 diacid = O=C(O)CCCCCCCCCCCCCCCCCCC(=O)*; C18 diacid = O=C(O)CCCCCCCCCCCCCCCCC(=O)*; γGlu = O=C(O)[C@H](CCC(=O)[*:2])N[*:1]; αMeF = C[C@](N)(Cc1ccccc1)C(=O)O; NMeQ = CN[C@@H](CCC(N)=O)C(=O)O; AEEA = NCCOCCOCC(=O)O; Aib = CC(C)(N)C(=O)O

Holding throughout (assay): cell-based or functional assay
The target in assay [1] is human GLP-1 receptor (human, UniProt P43220 24-463).
Assay [2] concerns the target human glucagon receptor (human, UniProt P47871 26-477).
Assay [3] has as its target human GLP-1 receptor (hGLP-1R) (human, UniProt P43220 24-463).
Assay [4] concerns the target human glucagon receptor (hGCGR) (human, UniProt P47871 26-477).

human glucagon receptor, sequence (P47871 26-477): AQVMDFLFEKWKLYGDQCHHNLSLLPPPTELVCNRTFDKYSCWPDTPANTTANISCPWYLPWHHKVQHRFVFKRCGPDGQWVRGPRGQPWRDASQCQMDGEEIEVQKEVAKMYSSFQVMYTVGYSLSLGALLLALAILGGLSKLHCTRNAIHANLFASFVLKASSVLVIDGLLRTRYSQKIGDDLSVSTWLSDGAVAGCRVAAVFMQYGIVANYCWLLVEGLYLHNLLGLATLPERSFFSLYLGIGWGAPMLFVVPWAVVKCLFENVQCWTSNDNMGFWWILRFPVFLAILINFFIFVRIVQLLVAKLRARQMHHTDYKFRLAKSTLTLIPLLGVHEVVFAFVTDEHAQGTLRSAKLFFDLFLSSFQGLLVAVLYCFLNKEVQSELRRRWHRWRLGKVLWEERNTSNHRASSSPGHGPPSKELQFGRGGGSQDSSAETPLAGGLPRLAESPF
human glucagon receptor (hGCGR), sequence (P47871 26-477): as above

For the molecule H[Aib]QGTFTSDVSE[αMeF]LDSERAK([AEEA-AEEA-γGlu-C18 diacid])DFVRWLEAGG-OH (not fully specified) [Peptide 524], the “hGLP-1R EC50 (pM), cAMP” value in assay [1] was found to be 366 pM. The “hGluc-R EC50 (pM), cAMP” value in assay [2] is over 24400 pM.

B1: Peptide 522 (peptide)
peptide: H[Aib]QGTFTSDVSK[αMeF]LDSERAK([AEEA-AEEA-γGlu-C18 diacid])DFVAWLEAGG-OH
modifications: N-terminus assumed
SMILES: CC(C)C[C@H](NC(=O)[C@H](Cc1c[nH]c2ccccc12)NC(=O)[C@H](C)NC(=O)[C@@H](NC(=O)[C@H](Cc1ccccc1)NC(=O)[C@H](CC(=O)O)NC(=O)[C@H](CCCCNC(=O)COCCOCCNC(=O)COCCOCCNC(=O)CC[C@H](NC(=O)CCCCCCCCCCCCCCCCC(=O)O)C(=O)O)NC(=O)[C@H](C)NC(=O)[C@H](CCCNC(=N)N)NC(=O)[C@H](CCC(=O)O)NC(=O)[C@H](CO)NC(=O)[C@H](CC(=O)O)NC(=O)[C@H](CC(C)C)NC(=O)[C@](C)(Cc1ccccc1)NC(=O)[C@H](CCCCN)NC(=O)[C@H](CO)NC(=O)[C@@H](NC(=O)[C@H](CC(=O)O)NC(=O)[C@H](CO)NC(=O)[C@@H](NC(=O)[C@H](Cc1ccccc1)NC(=O)[C@@H](NC(=O)CNC(=O)[C@H](CCC(N)=O)NC(=O)C(C)(C)NC(=O)[C@@H](N)Cc1c[nH]cn1)[C@@H](C)O)[C@@H](C)O)C(C)C)C(C)C)C(=O)N[C@@H](CCC(=O)O)C(=O)N[C@@H](C)C(=O)NCC(=O)NCC(=O)O
For B1, the “hGLP-1R EC50 (pM), cAMP” value in assay [1] amounted to 508 pM. Besides, the “hGluc-R EC50 (pM), cAMP” value in assay [2] is 6360 pM.

B2: Peptide 526 (peptide)
peptide: H[Aib]QGTFTSDVSK[αMeF]LDSERAK([AEEA-AEEA-γGlu-C18 diacid])DFVAWLEA[Aib]G-OH
modifications: N-terminus assumed
SMILES: CC(C)C[C@H](NC(=O)[C@H](Cc1c[nH]c2ccccc12)NC(=O)[C@H](C)NC(=O)[C@@H](NC(=O)[C@H](Cc1ccccc1)NC(=O)[C@H](CC(=O)O)NC(=O)[C@H](CCCCNC(=O)COCCOCCNC(=O)COCCOCCNC(=O)CC[C@H](NC(=O)CCCCCCCCCCCCCCCCC(=O)O)C(=O)O)NC(=O)[C@H](C)NC(=O)[C@H](CCCNC(=N)N)NC(=O)[C@H](CCC(=O)O)NC(=O)[C@H](CO)NC(=O)[C@H](CC(=O)O)NC(=O)[C@H](CC(C)C)NC(=O)[C@](C)(Cc1ccccc1)NC(=O)[C@H](CCCCN)NC(=O)[C@H](CO)NC(=O)[C@@H](NC(=O)[C@H](CC(=O)O)NC(=O)[C@H](CO)NC(=O)[C@@H](NC(=O)[C@H](Cc1ccccc1)NC(=O)[C@@H](NC(=O)CNC(=O)[C@H](CCC(N)=O)NC(=O)C(C)(C)NC(=O)[C@@H](N)Cc1c[nH]cn1)[C@@H](C)O)[C@@H](C)O)C(C)C)C(C)C)C(=O)N[C@@H](CCC(=O)O)C(=O)N[C@@H](C)C(=O)NC(C)(C)C(=O)NCC(=O)O
Take B2: in assay [1], the “hGLP-1R EC50 (pM), cAMP” value turned out to be 194 pM. Further, the “hGluc-R EC50 (pM), cAMP” value in assay [2] amounted to 690 pM.
As for HXHGSXTSDVSKXLDSQAAQDFVXWIANT (Aib at 2; αMePhe at 6 and 13; K(O2Oc-O2Oc-γE-C18diacid)24; C-terminal amide) [Peptide 358], the “hGLP-1R EC50 (pM); cAMP production” value in assay [3] stood at 74.9 pM.

B3: Peptide 523 (peptide)
peptide: H[Aib]QGTFTSDVSK[αMeF]LDSERAK([AEEA-AEEA-γGlu-C20 diacid])DFVAWLEAGG-OH
modifications: N-terminus assumed
SMILES: CC(C)C[C@H](NC(=O)[C@H](Cc1c[nH]c2ccccc12)NC(=O)[C@H](C)NC(=O)[C@@H](NC(=O)[C@H](Cc1ccccc1)NC(=O)[C@H](CC(=O)O)NC(=O)[C@H](CCCCNC(=O)COCCOCCNC(=O)COCCOCCNC(=O)CC[C@H](NC(=O)CCCCCCCCCCCCCCCCCCC(=O)O)C(=O)O)NC(=O)[C@H](C)NC(=O)[C@H](CCCNC(=N)N)NC(=O)[C@H](CCC(=O)O)NC(=O)[C@H](CO)NC(=O)[C@H](CC(=O)O)NC(=O)[C@H](CC(C)C)NC(=O)[C@](C)(Cc1ccccc1)NC(=O)[C@H](CCCCN)NC(=O)[C@H](CO)NC(=O)[C@@H](NC(=O)[C@H](CC(=O)O)NC(=O)[C@H](CO)NC(=O)[C@@H](NC(=O)[C@H](Cc1ccccc1)NC(=O)[C@@H](NC(=O)CNC(=O)[C@H](CCC(N)=O)NC(=O)C(C)(C)NC(=O)[C@@H](N)Cc1c[nH]cn1)[C@@H](C)O)[C@@H](C)O)C(C)C)C(C)C)C(=O)N[C@@H](CCC(=O)O)C(=O)N[C@@H](C)C(=O)NCC(=O)NCC(=O)O
For the molecule B3, in assay [1], the “hGLP-1R EC50 (pM), cAMP” value was 615 pM. Moreover, the “hGluc-R EC50 (pM), cAMP” value in assay [2] is over 24700 pM.

B4: Peptide 525 (peptide)
peptide: H[Aib]QGTFTSDVSK[αMeF]LDSERAK([AEEA-AEEA-γGlu-C18 diacid])DFVQWLEA[Aib]G-OH
modifications: N-terminus assumed
SMILES: CC(C)C[C@H](NC(=O)[C@H](Cc1c[nH]c2ccccc12)NC(=O)[C@H](CCC(N)=O)NC(=O)[C@@H](NC(=O)[C@H](Cc1ccccc1)NC(=O)[C@H](CC(=O)O)NC(=O)[C@H](CCCCNC(=O)COCCOCCNC(=O)COCCOCCNC(=O)CC[C@H](NC(=O)CCCCCCCCCCCCCCCCC(=O)O)C(=O)O)NC(=O)[C@H](C)NC(=O)[C@H](CCCNC(=N)N)NC(=O)[C@H](CCC(=O)O)NC(=O)[C@H](CO)NC(=O)[C@H](CC(=O)O)NC(=O)[C@H](CC(C)C)NC(=O)[C@](C)(Cc1ccccc1)NC(=O)[C@H](CCCCN)NC(=O)[C@H](CO)NC(=O)[C@@H](NC(=O)[C@H](CC(=O)O)NC(=O)[C@H](CO)NC(=O)[C@@H](NC(=O)[C@H](Cc1ccccc1)NC(=O)[C@@H](NC(=O)CNC(=O)[C@H](CCC(N)=O)NC(=O)C(C)(C)NC(=O)[C@@H](N)Cc1c[nH]cn1)[C@@H](C)O)[C@@H](C)O)C(C)C)C(C)C)C(=O)N[C@@H](CCC(=O)O)C(=O)N[C@@H](C)C(=O)NC(C)(C)C(=O)NCC(=O)O
Turning to B4, in assay [1], the “hGLP-1R EC50 (pM), cAMP” value is 177 pM. For the same molecule, the “hGluc-R EC50 (pM), cAMP” value in assay [2] was 2450 pM.

B5: Peptide 325 (peptide)
peptide: HS[NMeQ]GS[αMeF]TSDVSK[αMeF]LDSRAAK([AEEA-AEEA-γGlu-C18 diacid])D[αMeF]VQ[Aib]IANT-NH2
modifications: N-terminus assumed
SMILES: CC[C@H](C)[C@H](NC(=O)C(C)(C)NC(=O)[C@H](CCC(N)=O)NC(=O)[C@@H](NC(=O)[C@](C)(Cc1ccccc1)NC(=O)[C@H](CC(=O)O)NC(=O)[C@H](CCCCNC(=O)COCCOCCNC(=O)COCCOCCNC(=O)CC[C@H](NC(=O)CCCCCCCCCCCCCCCCC(=O)O)C(=O)O)NC(=O)[C@H](C)NC(=O)[C@H](C)NC(=O)[C@H](CCCNC(=N)N)NC(=O)[C@H](CO)NC(=O)[C@H](CC(=O)O)NC(=O)[C@H](CC(C)C)NC(=O)[C@](C)(Cc1ccccc1)NC(=O)[C@H](CCCCN)NC(=O)[C@H](CO)NC(=O)[C@@H](NC(=O)[C@H](CC(=O)O)NC(=O)[C@H](CO)NC(=O)[C@@H](NC(=O)[C@](C)(Cc1ccccc1)NC(=O)[C@H](CO)NC(=O)CNC(=O)[C@H](CCC(N)=O)N(C)C(=O)[C@H](CO)NC(=O)[C@@H](N)Cc1c[nH]cn1)[C@@H](C)O)C(C)C)C(C)C)C(=O)N[C@@H](C)C(=O)N[C@@H](CC(N)=O)C(=O)N[C@H](C(N)=O)[C@@H](C)O
On to B5, for which, in assay [1], the “hGLP-1R EC50 (pM), cAMP” value was 929 pM. Further, in assay [2], the “hGluc-R EC50 (pM), cAMP” value was over 25500 pM.

B6: Peptide 362 (peptide)
peptide: H[Aib]HGS[αMeF]TSDVSK[αMeF]LDSRAAQDFVK([AEEA-AEEA-γGlu-γGlu-C18 diacid])WIANT-NH2
modifications: N-terminus assumed
SMILES: CC[C@H](C)[C@H](NC(=O)[C@H](Cc1c[nH]c2ccccc12)NC(=O)[C@H](CCCCNC(=O)COCCOCCNC(=O)COCCOCCNC(=O)CC[C@H](NC(=O)CC[C@H](NC(=O)CCCCCCCCCCCCCCCCC(=O)O)C(=O)O)C(=O)O)NC(=O)[C@@H](NC(=O)[C@H](Cc1ccccc1)NC(=O)[C@H](CC(=O)O)NC(=O)[C@H](CCC(N)=O)NC(=O)[C@H](C)NC(=O)[C@H](C)NC(=O)[C@H](CCCNC(=N)N)NC(=O)[C@H](CO)NC(=O)[C@H](CC(=O)O)NC(=O)[C@H](CC(C)C)NC(=O)[C@](C)(Cc1ccccc1)NC(=O)[C@H](CCCCN)NC(=O)[C@H](CO)NC(=O)[C@@H](NC(=O)[C@H](CC(=O)O)NC(=O)[C@H](CO)NC(=O)[C@@H](NC(=O)[C@](C)(Cc1ccccc1)NC(=O)[C@H](CO)NC(=O)CNC(=O)[C@H](Cc1c[nH]cn1)NC(=O)C(C)(C)NC(=O)[C@@H](N)Cc1c[nH]cn1)[C@@H](C)O)C(C)C)C(C)C)C(=O)N[C@@H](C)C(=O)N[C@@H](CC(N)=O)C(=O)N[C@H](C(N)=O)[C@@H](C)O
Regarding B6, the “hGluc-R EC50 (pM); cAMP production” value in assay [4] is 42.8 pM.
Regarding HXHGTFTSDVSKXLDSQAAQDFVXWIANT (Aib at 2; αMePhe at 13; K(γE-C18diacid)24; C-terminal amide) [Peptide 346], the “hGLP-1R EC50 (pM); cAMP production” value in assay [3] is 7320 pM.
For H[Aib]QGTFTSDVSK[αMeF]LDSRAAKDFVQWIANT-NH2 (not fully specified (residue 20)) [Peptide 343], the “hGLP-1R EC50 (pM), cAMP” value in assay [1] is 198 pM. Also, the “hGluc-R EC50 (pM), cAMP” value in assay [2] turned out to be 19600 pM.

B7: Peptide 340 (peptide)
peptide: H[Aib]QGTFTSDYSK[αMeF]LDSRRAK([γGlu-C18 diacid])DFVQWLL[Aib]E-OH
modifications: N-terminus assumed
SMILES: CC(C)C[C@H](NC(=O)[C@H](Cc1c[nH]c2ccccc12)NC(=O)[C@H](CCC(N)=O)NC(=O)[C@@H](NC(=O)[C@H](Cc1ccccc1)NC(=O)[C@H](CC(=O)O)NC(=O)[C@H](CCCCNC(=O)CC[C@H](NC(=O)CCCCCCCCCCCCCCCCC(=O)O)C(=O)O)NC(=O)[C@H](C)NC(=O)[C@H](CCCNC(=N)N)NC(=O)[C@H](CCCNC(=N)N)NC(=O)[C@H](CO)NC(=O)[C@H](CC(=O)O)NC(=O)[C@H](CC(C)C)NC(=O)[C@](C)(Cc1ccccc1)NC(=O)[C@H](CCCCN)NC(=O)[C@H](CO)NC(=O)[C@H](Cc1ccc(O)cc1)NC(=O)[C@H](CC(=O)O)NC(=O)[C@H](CO)NC(=O)[C@@H](NC(=O)[C@H](Cc1ccccc1)NC(=O)[C@@H](NC(=O)CNC(=O)[C@H](CCC(N)=O)NC(=O)C(C)(C)NC(=O)[C@@H](N)Cc1c[nH]cn1)[C@@H](C)O)[C@@H](C)O)C(C)C)C(=O)N[C@@H](CC(C)C)C(=O)NC(C)(C)C(=O)N[C@@H](CCC(=O)O)C(=O)O
In the case of B7, the “hGLP-1R EC50 (pM), cAMP” value in assay [1] is 312 pM. Besides, in assay [2], the “hGluc-R EC50 (pM), cAMP” value is 94.7 pM.
